In patent US20250313621A1 (NXERA PHARMA UK, published 2025):
Residue numbers refer to the chain shown, from its start. Blank lines part the entries; values can stand above or below the binder they belong to.

Columns and labels:
[1] = target: T1, PAR2-3: P157: 1-377, glycosylated, pBacMamHisStrepII, full length (human, UniProt P55085 26-377); experiment: SPR (table head: Octet); IgG captured via Fc, FL-N PAR2 StaR as analyte; koff at the lower assay limit
T1 construct: detergent-solubilised analyte in SPR, or on infected cells in flow cytometry; also called FL-N PAR2 StaR; FL-N StaR; not shown: C-terminal StrepII and deca-histidine tags
T1 sequence: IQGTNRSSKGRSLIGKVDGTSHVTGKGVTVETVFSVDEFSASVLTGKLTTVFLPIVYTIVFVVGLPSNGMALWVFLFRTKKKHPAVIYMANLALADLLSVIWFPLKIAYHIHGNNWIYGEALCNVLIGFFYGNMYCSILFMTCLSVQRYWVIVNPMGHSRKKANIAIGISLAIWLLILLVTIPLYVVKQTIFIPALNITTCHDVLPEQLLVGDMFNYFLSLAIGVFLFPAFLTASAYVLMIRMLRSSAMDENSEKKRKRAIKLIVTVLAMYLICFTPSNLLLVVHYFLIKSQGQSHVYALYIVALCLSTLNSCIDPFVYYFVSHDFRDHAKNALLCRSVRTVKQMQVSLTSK
Protocol: For all eleven IgG1f_AEASS, affinities to human PAR2 were determined by SPR. The IgGs were captured via their Fc-fragment and detergent (LMNG/CHS) solubilised FL-N PAR2 StaR was used as analyte in solution. 50 mM HEPES pH 7.5, 150 mM NaCl, 0.02% LMNG was used as assay buffer. To minimize artefacts introduced by non-specific interaction of FL-N PAR2 StaR with the sensors, the CM3 sensors were used as basis to immobilize a high density of anti-hu-Fc capture antibody (BR-1008-39, GE Healthcare). IgGs were captured with relatively high levels of approximately 500 RU to achieve a higher ratio of specific to non-specific binding (while still maintaining conditions suitable for kinetic characterization). Affinities ranged from 6.5 nM to 130 pM. The koff values of the best candidates were at the lower assay limit. A minimum koff of 2.00E-05 s⁻¹ was reported (corresponding to 3% dissociation in 1500 s).

[2] = target: T2, Cynomolgus PAR2 on BacMam-infected HEK293 cells (cynomolgus); experiment: cell-based or functional assay
Rhesus PAR2 on cells = Rhesus PAR2 on cells (rhesus (Macaca mulatta)); experiment: cell-based or functional assay
[3] = target: T3, Wildtype human PAR2 expressed on cells (human, UniProt P55085 37-397); experiment: cell-based or functional assay
T3 sequence: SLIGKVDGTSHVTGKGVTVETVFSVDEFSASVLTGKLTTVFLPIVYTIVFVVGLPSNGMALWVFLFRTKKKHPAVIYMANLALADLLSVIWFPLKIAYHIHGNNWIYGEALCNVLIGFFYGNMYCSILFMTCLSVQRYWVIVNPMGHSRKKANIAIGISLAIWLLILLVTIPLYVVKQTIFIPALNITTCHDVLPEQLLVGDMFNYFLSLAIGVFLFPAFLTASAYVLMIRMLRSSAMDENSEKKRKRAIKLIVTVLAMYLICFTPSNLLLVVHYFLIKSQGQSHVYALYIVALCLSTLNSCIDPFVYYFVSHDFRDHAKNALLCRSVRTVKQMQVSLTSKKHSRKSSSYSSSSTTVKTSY

[4] = target: T4, Soluble PAR2 StaR (recombinant human PAR2 StaR protein in detergent, construct not stated) (human, UniProt P55085 37-377, limits assumed); experiment: SPR Biacore T200; IgG captured, PAR2 as analyte; 25 C, 30 min dissociation
T4 construct: also called purified PAR2
T4 sequence: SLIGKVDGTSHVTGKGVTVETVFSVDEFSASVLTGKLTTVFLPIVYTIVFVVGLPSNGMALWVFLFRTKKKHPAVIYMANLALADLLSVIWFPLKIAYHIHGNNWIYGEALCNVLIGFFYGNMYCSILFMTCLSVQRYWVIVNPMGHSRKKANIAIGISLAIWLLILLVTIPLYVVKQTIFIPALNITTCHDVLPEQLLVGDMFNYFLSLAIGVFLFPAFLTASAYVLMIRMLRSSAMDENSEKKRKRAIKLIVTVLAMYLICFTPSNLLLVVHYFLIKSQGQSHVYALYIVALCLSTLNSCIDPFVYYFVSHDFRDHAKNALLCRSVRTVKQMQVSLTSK
Protocol: The assay of PAR2 interaction with anti-PAR2 antibodies was carried out using a Biacore T200 instrument (GE Healthcare). Anti-human IgG antibody (Human Antibody Capture Kit, GE Healthcare) was immobilised by amine coupling in the target and reference flow cells of sensor chip CM3 (GE Healthcare) to a surface density of 2700 to 3000 resonance units (RU). Immobilisation was carried out at 25° C. in HBS-EP+buffer (GE Healthcare). The buffer was then changed to 50 mM HEPES, pH 7.5, 150 mM NaCl, 0.02% LMNG, 0.002% CHS for the PAR2-antibody interaction assay which was carried out at either 25 or 37° C. Each cycle of the assay began with antibody capture in the target flow cell to a level of 400 to 450 RU. PAR2 was then injected over target and reference flow cells at three concentrations, 5 min each, followed by 30-min dissociation. The surface was then regenerated with a solution provided in the kit (Human Antibody Capture Kit, GE Healthcare). With every antibody tested the first cycle was a blank (three injections of the running buffer) and the second a series of 50, 100, and 200 nM PAR2 injections.

[5] = target: T3, Wildtype human PAR2 expressed on cells; experiment: cell-based or functional assay; remark: listed apart in the source
[6] = target: T4, Soluble PAR2 StaR (recombinant human …); experiment: SPR Biacore; soluble PAR2 StaR
[7] = target: T4, Soluble PAR2 StaR (recombinant human …); experiment: SPR Biacore T200; IgG captured, PAR2 as analyte; 25 C, 90 min dissociation
[8] = target: T2, Cynomolgus PAR2 on BacMam-infected …; experiment: flow cytometry on HEK293F-cynoPAR2 (3.0E+06 cells/mL), S/BG

Kd [1]: ≤ 0.21 nM
IC50 (nM), SLIGKV agonist challenge, Cyno [2]: 88 nM
IC50 (nM), SLIGKV agonist challenge, Rhesus (Rhesus PAR2 on cells): 50 nM
IC50 (nM), SLIGKV agonist challenge, Human [3]: 61 nM
Kd [4]: 0.43 nM
koff [4]: 1.2e-05 s⁻¹
kon [4]: 28000 M⁻¹ s⁻¹
t½ [4]: 16.1 h
% Max Inhibition, AP challenge, IP-One [5]: 203%
Kd [6]: 0.21 nM
koff [6]: 7e-06 s⁻¹
kon [6]: 34000 M⁻¹ s⁻¹
Kd [7]: 0.21 nM
koff [7]: 7e-06 s⁻¹
kon [7]: 34000 M⁻¹ s⁻¹
t½ [7]: 27.6 h
B1: Y022870 (antibody, human IgG1, lambda, V domains shown)
VH: EVQLLESGGGLVQPGGSLRLSCAASGFSFSRYAITWVRQAPGKGLEWVSTISALGLETYYAESVRGRFTISRDNSKNTLYLQMNSLRAEDTAVYYCARGFHYTHSGKRYYYPFDIWGQGTLVTVSS
VL: QSALTQPASVSGSPGQSITISCTGTSSDVGSYNLVSWYQQHPGKAPKLMIYEGSKRPSGVSNRFSGSKSGNTASLTISGLQAEDEADYYCSQYATFIAFAVFGGGTKLTVLG
notes: also called Y22870

Kd [1]: 0.29 nM
IC50 (nM), SLIGKV agonist challenge, Cyno [2]: 74 nM
IC50 (nM), SLIGKV agonist challenge, Rhesus (Rhesus PAR2 on cells): 47 nM
IC50 (nM), SLIGKV agonist challenge, Human [3]: 52 nM
Kd [4]: 0.23 nM
koff [4]: 5.1e-06 s⁻¹
kon [4]: 22000 M⁻¹ s⁻¹
t½ [4]: 37.9 h
% Max Inhibition, AP challenge, IP-One [5]: 167%
EC50 (read off the curve) [8]: ~3 nM
Kd [6]: 0.3 nM
koff [6]: 8e-06 s⁻¹
kon [6]: 27000 M⁻¹ s⁻¹
Kd [7]: 0.3 nM
koff [7]: 8e-06 s⁻¹
kon [7]: 27000 M⁻¹ s⁻¹
t½ [7]: 24.1 h
B2: Y022877 (antibody, human IgG1, lambda, V domains shown)
VH: B1 VH with S28T, I34M, A53G, L56Q, T58A, E62G, R65K
VL: B1 VL
notes: also called Y22877

Kd [1]: 0.14 nM
IC50 (nM), SLIGKV agonist challenge, Cyno [2]: 68 nM
IC50 (nM), SLIGKV agonist challenge, Rhesus (Rhesus PAR2 on cells): 43 nM
IC50 (nM), SLIGKV agonist challenge, Human [3]: 54 nM
Kd [4]: 0.2 nM
koff [4]: 8.1e-06 s⁻¹
kon [4]: 40000 M⁻¹ s⁻¹
t½ [4]: 23.7 h
% Max Inhibition, AP challenge, IP-One [5]: 149%
EC50 (read off the curve) [8]: ~2 nM
Kd [6]: 0.4 nM
koff [6]: 1.2e-05 s⁻¹
kon [6]: 30000 M⁻¹ s⁻¹
Kd [7]: 0.4 nM
koff [7]: 1.2e-05 s⁻¹
kon [7]: 30000 M⁻¹ s⁻¹
t½ [7]: 16.2 h
B3: Y022883 (antibody, human IgG1, lambda, V domains shown)
VH: B1 VH with S30T, T35S, T50V, A53G, L54H, L56S, T58A, Y59N, R65K
VL: B1 VL
notes: also called Y22883; Y02283
